Experimental data from the DeepSol protein solubility set.

test: soluble on expression in E. coli; label from the status in PepcDB or PDB records

For “MSLKLWENGTFYQMTAEGEQVSAVLTKNGQIHAVGEVADLKKQYATEIDETIDLEGKVVFPGFVDAHIHLLWYGQALERLNLNQTTTKKEALALILERTKQLASEEWLFVEGYDENKWSDEQTLISLVDLDGVSTTNPILVRRIDYHSVSINSALKAHIENFSENGFDGGGEIVRDKAGNFTGILRDNATTLAIDAFPAATPAELNAWLKIAITDLWSKGITGAHSEDLHYFTGFESTFAAFRNTVGANRLPFRAHLLIHHAELANFSTSKESFMSGDKFLELGAMKIFYDGTVGSRTALMSAGYADNPNEKGLQIHSDEAFEDLVQSARKAGLPVAIHILGDQAFANVIRTLRANPPKEGQYDRLIHTPWLTKELIAEAEGLPILFDVQPQFMASDLPWAIDVLGENHPPLAFAWNSLLRAGFPLAGGSDAPIEVPNPFWGIHAAVTRTANADLNGVKYWPEESLTVYEAIELYTKGAAFASYKTTSRGQIAPGFVADFTILAEDPFLIKPANLRHLEVMMTVVNEQVVYKKEGHHHHHH”, which “soluble on expression in E. coli” value is on record?
The value was “soluble”.

With “MQVDINVNVVEKPTGAIMFGAGYSDREGIILNGSIAQNNILGTGNFLSLQVNTGSVNKVISASFNNPYYTINGVSLGLEAFKRDINTRSLSSVGMFNTDTTGANIRFGIPVAENDIVSLGLGYEHTKIDLRDDSPQRFKDFVDQFGKTSNNLPITLSWARDRRNSAIWTTSGMTQRLFGEFGLPFGDLNYYKVSYEQRWFFPVTKMFTLMLNGEVGVGDGYSDKPLPFFKNFFAGGFNSVRGYNINTLGPRDSDDRVLGGSKRIVGNIEVLFPVPFMKEDKSVRLSAFADGGTIVNSFSGLGFDDFRYSAGLAATWISPMGPLKFSVAQPLNNQSGDKLQRFQFQFGQTFLEHHHHHH” as the sequence, how does the “soluble on expression in E. coli” value read?
Its value is “not soluble”.

For “MKLLILFSLFAIFFGVIALDSPIPEFYSTGRSTRVPSHRHRIPRLGKREVPNFQADNVPEAGGRVRRYVGPPLKLVILI”, which “soluble on expression in E. coli” value is on record?
Its value is “not soluble”.

For “MGHPRSIRSFVLRQSHMTAAQQRAIDTLWDSFGIDYQATPADLDARFGSSRPKILEIGFGMGTATAEIARRLPETDFLAIDVHGPGVGNLLKLIDENHLENIRVMRHDAVEVVENMLQDGSLDGIHIFFPDPWHKKRHHKRRLIQAPFIAKLLPKLKTGGYIHLATDWEEYAQQMLEVLSSFDSLQNTAADYAPTPDYRPETKFEARGKRLGHGVWDLVFKRIGLEHHHHHH”, which “soluble on expression in E. coli” value is on record?
The value was “soluble”.

With “MGSDKIHHHHHHMSKSLIRIAPGALTIGKPLPWDVFDSEGNILLRQGYVIQTNSQLEQLFERGRFKPRKIERPKEETFEDLRQRNPFAEYGDLLTTLEVTLNAITSEDPTAQKRLLGLCRMLDKTCQEAPDASLALVHLYSISPTIHEQILFYGILCHFIARQFGLEEKRATVLTAAALTANLALVPVADQLNASNTVLTDDQRAVIRKHPARSIQALTSAGINNKLLLRIIAQHHEQADGSGYPEGLSGSDILPEAEILALAERYVAMITKRAYRNRMNITEARKLIATLADGKFRPAIPRSLLQVLGDHPPGMLVRLVNNEVGVVTRRADRTRGPFVKAIFGPRGNRYNGTFERDTSLLEYNVRAPEEPEIMPSMDFSMLWGFRS” as the sequence, how does the “soluble on expression in E. coli” value read?
Its value is “not soluble”.

For “MQTEFLTGAPTRSAAFPVTGGDWGTAGILQTPTARMNDAGEASLSMSHVSPYTRLNFALQPLDWLEIGFRYTDVSNQPYGPVSLSGTQSYKDKSIDAKIRLWRESAYLPDVAVGFRDIAGSGLFSGEYLVASKRTGPFDWSVGLGWGYMGARGNLRNPLSMISRRFDDRANSATPNGGELGYGSWFRGRVSPFGGVQYQTPDERLILKAEYDGNDYRHEPFGQVLKERSPFNFGAVYRATRNIDLSVGFERGTRVMFGVSLHGNLKRATMPKLGNPPPVPVTQPAANAGPRTHAAGAPTRGGRSAVASTPRIEGASPSPFDRDWSDTVAQLQAQTNWHVRSIRALGMDLVIEFDDVDAFYLQDQIDRIATILNRDAPLNVRTFHVVALTHGVPVADYQVQRTQWFASRTRALVPSEVAPATTLGRPLTNQSIDMLPPLFEQRPRAFVLSVGPGYQQTLGGPNGFLLYQISANAYGELRMPGGAWLGGELNVGLVDNYGKFTYTADSKLPRVRTYLREYLTTSRVTLPLLQLTKIGRLGNDQFYSVYGGLLESMFAGVGVEWLYRPAHSRLAIGVDVNAVRQRGFRQDFSMRGYKTLTGHVTAYWDTGWQGVQINLSVGQYLAKDKGATLDISRRFRNGVVIGAYATKTNVSPAQFGEGSFDKGIYVTIPFDAMMTRSSSSIANLRWNPVTRDGGAKLDRRYPLYDLTDMGERRSLWYAPPDGAVSPLEHHHHHH”, which “soluble on expression in E. coli” value is on record?
Its value is “not soluble”.

With “MGSDKIHHHHHHMKISPLCPSCLLGRVYYEAKLVTDDEDLISQCVDESLKILAENYSSAPINAHLATRIHRRVYEILGVEDPYAEVKARANEVARQVLPLAKEIVEGSDDPFKTAVIVSIVGNNFDYGVQGHKVVEEEFRDFLKRKVQEGLKINDTERIKELSSGKVVYLTDNAGEIFFDTLLMKEIKRRCEKLTAVVRGRPIISDATIEDARLARVDKIADELLTNGKGAIGIIMDELPDETRKALEEADLIVAKGMANYECLSDGSLKPIAFLLTAKCEPVARDIGVNVGDMVAKVVE” as the sequence, how does the “soluble on expression in E. coli” value read?
The value was “not soluble”.

With “MGSSHHHHHHSSGLVPRGSHMQKPIKKDPNRYHGEKMTEFSEWFHNILEEAEIIDQRYPVKGMHVWMPHGFMIRKNTLKILRRILDRDHEEVLFPLLVPEDELAKEAIHVKGFEDEVYWVTHGGLSKLQRKLALRPTSETVMYPMFALWVRSHTDLPMRFYQVVNTFRYETKHTRPLIRVREITTFKEAHTIHATASEAEEQVERAVEIYKEFFNSLGIPYLITRRPPWDKFPGSEYTVAFDTLMPDGKTLQIGTVHNLGQTFARTFEIKFETPEGDHEYVHQTCYGLSDRVIASVIAIHGDESGLCLPPDVAAHQVVIVPIIFKKAAEEVMEACRELRSRLEAAGFRVHLDDRDIRAGRKYYEWEMRGVPLRVEIGPRDLEKGAAVISRRDTGEKVTADLQGIEETLRELMKDILENLRTRAWERMESEIREAETLEEASRIVDEKRGIISFMWCGEEECGMDVEEKVRVDILGIQEEGSGTCINCGREAPYRAYLARTY” as the sequence, how does the “soluble on expression in E. coli” value read?
The value was “soluble”.

Which “soluble on expression in E. coli” value does the source give for “QTNNDEELQDMSDPLAVYTQAGFGITDKGANIKIGQTYQSSQPGTMAMNIIEMKGIGGELFGIRDNDDPMYANVDDSIDSFRLRNFQVEVAKGLGRQLDVNYDVDNDKLDASYSFIQGLPK” here?
The value was “not soluble”.

Which “soluble on expression in E. coli” value does the source give for “MTTLNELKHGLEEAWESLAEGWHRLRERAAGALTRFKPGASVPAVPRRQEDFYLASPTWALLAGDVYEDDRKVVIRLEVPGMEKEDFNLELRGDLLIVQGEKRLERETSEGRYRVLQCAYGHFHRVIPLPAEVVADRVQASYRNGVLKIELPKAAARLPRNIEIPVRLEHHHHHH” here?
Its value is “not soluble”.

With “FLILLRKTLEQLQEKDTGNIFSEPVPLSEVPDYLDHIKKPMDFFTMKQNLEAYRYLNFDDFEEDFNLIVSNCLKYNAKDTIFYRAAVRLREQGGAVLRQARRQAEKMG” as the sequence, how does the “soluble on expression in E. coli” value read?
The value was “soluble”.

With “MKEVLKLADEKFVMSFSGGKDSILALNRMLKKGYKPVALLTTISEEHGKSWTHNLEYNMLKQVSSNIGLPLLVAECGVEGYEESFERALIKAKNMGATICAYGDIDIESHRKWDTDRCEAVGMKVDLPLWQESREDLVYEFIDSGFCSVVTKVNLKHLGEEFLGKKLTRELVEKIKNAGADPCGEHGEYHTFVVDGPIFKKPVEYEVKGTLIKDGYGYLEIK” as the sequence, how does the “soluble on expression in E. coli” value read?
The value was “not soluble”.

Which “soluble on expression in E. coli” value does the source give for “MGSDKIHHHHHHMSLQSLKINFAEWLLLKVKYPSQYWLGAADQPVKAAAHQKKIILTLLPSHDNLGDHAIAYASKAFLEQEYPDFDIVEVDMKDIYKSAKSLIRSRHPEDMVFIIGGGNMGDLYRYEEWTRRFIIKTFHDYRVVQLPATAHFSDTKKGRKELKRAQKIYNAHPGLLLMARDETTYQFMKQHFQEKTILKQPDMVLYLDRSKAPAEREGVYMCLREDQESVLQEEQRNRVKAALCEEFGEIKSFTTTIGRRVSRDTREHELEALWSKLQSAEAVVTDRLHGMIFCALTGTPCVVIRSFDHKVMEGYQWLKDIPFMKLIEHPEPERVTAAVNELLTKETSRAGFPRDVYFKGLRDKISGEAQ” here?
Its value is “not soluble”.

For “PGYLNDIPRHGMFVKDLILLVNDTAAVAYDPMENECYLTALAEQIPRNHSSIVTQQNQVYVVGGLYVDEENKDQPLQSYFFQLDNVSSEWVGLPPLPSARCLFGLGEVDDKIYVVAGKDLQTEASLDSVLCYDPVAAKWSEVKNLPIKVYGHNVISHNGMIYCLGGKTDDKKCTNRVFIYNPKKGDWKDLAPMKTPRSMFGVAIHKGKIVIAGGVTEDGLSASVEAFDLKTNKWEVMTEFPQERSSISLVSLAGSLYAIGGFAMIQLESKEFAPTEVNDIWKYEDDKKEWAGMLKEIRYASGASCLATRLNLFKLSKL”, which “soluble on expression in E. coli” value is on record?
The value was “soluble”.

For “MGSDKIHHHHHHMKGFMNMFTNDQFKSLLIKTLERKSSSNYYEGGNEIVSKMKISEVTLDETDDFTYYKGYKKGWNTLCTYLKIRVPFDDLDFFESHKDLITQTASSIYDKQGDNVLVDTILVPLPENYEVINFSQLKISDVVSQAIEDAESFMSNGEYQRAFDRVHTAFHGYLIEILKKYEITVPRDENLSKLYSRIQQLIEKEIQPTELADIVKTTIRSSNGMISSLNEARNRHSLAHPNTNIIGKREAKLIIGISSTVTDYISGYLDK”, which “soluble on expression in E. coli” value is on record?
Its value is “not soluble”.

For “VVLSTAFSQMFGIDYPIVSAPMDLIAGGELAAAVSGAGGLGLIGGGYGDRDWLARQFDLAAGAPVGCGFITWSLARQPQLLDLALQYEPVAVMLSFGDPAVFADAIKSAGTRLVCQIQNRTQAERALQVGADVLVAQGTEAGGHGHGPRSTLTLVPEIVDLVTARGTDIPVIAAGGIADGRGLAAALMLGAAGVLVGTRFYATVEALSTPQARDPLLAATGDDMCRTTIYDQLRRYPWPQGHTMSVLSNALTDQFEDTELDILHREEAMARYWRAVAARDYSIANVTAGQAAGLVNAVLPAADVITGMAQQAARTLTAMRAV”, which “soluble on expression in E. coli” value is on record?
The value was “not soluble”.

For “RVETQPEVQLPGPAPNLRAYAASPTSITVTWETPVSGNGEIQNYKLYYMEKGTDKEQDVDVSSHSYTINGLKKYTEYSFRVVAYNKHGPGVSTPDVAVRTLSD”, which “soluble on expression in E. coli” value is on record?
Its value is “soluble”.

With “MKFKQDFFTQLPEFYSQVYPQGISNPHWLAWSDDAAALIGLHQPTDELLQGLSGNAAVEGASYYAQVYSGHQFGGYTPRLGDGRSIILGEAIGPNGAWDVALKGGGPTPYSRHGDGRAVMRSAVREFLVSEALHHLGVPTTRALAVIGSDMPVWRESQETAAITVRLARSHIRFGHFEFFSHSERGQADKLTQLLNFTLKQHYPHLSCDPAGYKAWFLQVVQDSAKMIAHWQAIGFAHGVMNTDNMSILGDSFDFGPFAFLDTFQEDFICNHSDPDGRYAFGQQPGIGLWNLQRLAQALTPVIASDDLIAALNQYQHALVQHYLALMRAKLGLVQQADSSAEQDQQDLELIGRFTVLMEKNQLDYSHTWRRFGQLDPSSLHSSLRDDFIDLNEFDAWYQVYQARLGKVTDVEAWQQQCNRVNPKYILRNYLAQEAIIAVDEGNLAQLQRLHQVLRQPFTEQIEHEELAKRPPDWGQGLIMSCSS” as the sequence, how does the “soluble on expression in E. coli” value read?
The value was “soluble”.

For “MAHHHHHHMQKSNEKNGPENNAKNGPENNAKNGPENNAKKGPENNAKKGPENNAKKGPENNAKKGPENNAKKGPENKEKKGHSCCGKKGSTGNPKEKKKSDKNSEDNKNSQGDKISKDHAECTPSLHVECAHNCCKKKLAFIYDCWDNFKSYKNIIEQHTKGQQENNFQLQGAGDEDSGEDGGASTTGHSMAMAMPMSFQLSTHTIILFKFWETKTVSRAGIPSQWRLLSGTP”, which “soluble on expression in E. coli” value is on record?
Its value is “soluble”.

With “MKRDQLKSLLLGAILLAGITLPAKAQIGEQRHNFAIGINGGANYSTVSFQPTIKQNGLLGITGGVTARYISEKYFAMICGAQLELNFSQRGWDEKFDPEQGFSSEDSYVRTMNYLEIPFLAHLAFGKDKGVQFFVNLGPQIGLLLNESEKRKGTWETANRAPNEQYGKWVENKFDYGIVGGGGIEVRTKAGNFLLEGRYYFGLADFYNSTKKDYFSRSANSTITAKITYLFDIKK” as the sequence, how does the “soluble on expression in E. coli” value read?
The value was “not soluble”.
